Measured values as given in US20160201097A1, “Materials and Methods of Producing 7-Carbon Monomers” (INVISTA North America S.á.r.l., priority 2014, published 2016).

B1: SEQ ID NO: 3: Mycobacterium smegmatis carboxylate reductase, N-terminal HIS tagged (protein, listed as Mycobacterium smegmatis)
chain: MTSDVHDATDGVTETALDDEQSTRRIAELYATDPEFAAAAPLPAVVDAAHKPGLRLAEILQTLFTGYGDRPALGYRARELATDEGGRTVTRLLPRFDTLTYAQVWSRVQAVAAALRHNFAQPIYPGDAVATIGFASPDYLTLDLVCAYLGLVSVPLQHNAPVSRLAPILAEVEPRILTVSAEYLDLAVESVRDVNSVSQLVVFDHHPEVDDHRDALARAREQLAGKGIAVTTLDAIADEGAGLPAEPIYTADHDQRLAMILYTSGSTGAPKGAMYTEAMVARLWTMSFITGDPTPVINVNFMPLNHLGGRIPISTAVQNGGTSYFVPESDMSTLFEDLALVRPTELGLVPRVADMLYQHHLATVDRLVTQGADELTAEKQAGAELREQVLGGRVITGFVSTAPLAAEMRAFLDITLGAHIVDGYGLTETGAVTRDGVIVRPPVIDYKLIDVPELGYFSTDKPYPRGELLVRSQTLTPGYYKRPEVTASVFDRDGYYHTGDVMAETAPDHLVYVDRRNNVLKLAQGEFVAVANLEAVFSGAALVRQIFVYGNSERSFLLAVVVPTPEALEQYDPAALKAALADSLQRTARDAELQSYEVPADFIVETEPFSAANGLLSGVGKLLRPNLKDRYGQRLEQMYADIAATQANQLRELRRAAATQPVIDTLTQAAATILGTGSEVASDAHFTDLGGDSLSALTLSNLLSDFFGFEVPVGTIVNPATNLAQLAQHIEAQRTAGDRRPSFTTVHGADATEIRASELTLDKFIDAETLRAAPGLPKVTTEPRTVLLSGANGWLGRFLTLQWLERLAPVGGTLITIVRGRDDAAARARLTQAYDTDPELSRRFAELADRHLRVVAGDIGDPNLGLTPEIWHRLAAEVDLVVHPAALVNHVLPYRQLFGPNVVGTAEVIKLALTERIKPVTYLSTVSVAMGIPDFEEDGDIRTVSPVRPLDGGYANGYGNSKWAGEVLLREAHDLCGLPVATFRSDMILAHPRYRGQVNVPDMFTRLLLSLLITGVAPRSFYIGDGERPRAHYPGLTVDFVAEAVTTLGAQQREGYVSYDVMNPHDDGISLDVFVDWLIRAGHPIDRVDDYDDWVRRFETALTALPEKRRAQTVLPLLHAFRAPQAPLRGAPEPTEVFHAAVRTAKVGPGDIPHLDEALIDKYIRDLREFGLI
modifications: N-terminal His tag
notes: Mycobacterium smegmatis carboxylate reductase, N-terminal HIS tagged
B2: SEQ ID NO: 9: Pseudomonas syringae ω-transaminase, N-terminal HIS tagged (protein, listed as Pseudomonas syringae)
chain: MSANNPQTLEWQALSSEHHLAPFSDYKQLKEKGPRIITRAEGVYLWDSEGNKILDGMSGLWCVAIGYGREELADAASKQMRELPYYNLFFQTAHPPVLELAKAISDIAPEGMNHVFFTGSGSEGNDTMLRMVRHYWALKGQPNKKTIISRVNGYHGSTVAGASLGGMTYMHEQGDLPIPGVVHIPQPYWFGEGGDMTPDEFGIWAAEQLEKKILELGVENVGAFIAEPIQGAGGVIVPPDSYWPKIKEILSRYDILFAADEVICGFGRTSEWFGSDFYGLRPDMMTIAKGLTSGYVPMGGLIVRDEIVAVLNEGGDFNHGFTYSGHPVAAAVALENIRILREEKIVERVRSETAPYLQKRLRELSDHPLVGEVRGVGLLGAIELVKDKTTRERYTDKGAGMICRTFCFDNGLIMRAVGDTMIIAPPLVISFAQIDELVEKARTCLDLTLAVLQG
modifications: N-terminal His tag
notes: Pseudomonas syringae ω-transaminase, N-terminal HIS tagged
B3: SEQ ID NO: 12: Vibrio fluvialis ω-transaminase, N-terminal HIS tagged (protein, listed as Vibrio fluvialis)
chain: MNKPQSWEARAETYSLYGFTDMPSLHQRGTVVVTHGEGPYIVDVNGRRYLDANSGLWNMVAGFDHKGLIDAAKAQYERFPGYHAFFGRMSDQTVMLSEKLVEVSPFDSGRVFYTNSGSEANDTMVKMLWFLHAAEGKPQKRKILTRWNAYHGVTAVSASMTGKPYNSVFGLPLPGFVHLTCPHYWRYGEEGETEEQFVARLARELEETIQREGADTIAGFFAEPVMGAGGVIPPAKGYFQAILPILRKYDIPVISDEVICGFGRTGNTWGCVTYDFTPDAIISSKNLTAGFFPMGAVILGPELSKRLETAIEAIEEFPHGFTASGHPVGCAIALKAIDVVMNEGLAENVRRLAPRFEERLKHIAERPNIGEYRGIGFMWALEAVKDKASKTPFDGNLSVSERIANTCTDLGLICRPLGQSVVLCPPFILTEAQMDEMFDKLEKALDKVFAEVA
modifications: N-terminal His tag
notes: Vibrio fluvialis ω-transaminase, N-terminal HIS tagged

Experiments:
Format in all cases: biochemical
[1] = ω-transaminase activity, reverse direction: 7-aminoheptanoate to pimelate semialdehyde (L-alanine formation by RP-HPLC); details: cell free extract, 10 mM 7-aminoheptanoate, 10 mM pyruvate, pH 7.5, 25° C., 4 h; against the empty vector control (FIG. 13)
Protocol: (§1) A nucleotide sequence encoding an N-terminal His-tag was added to the nucleic acid sequences from Chromobacterium violaceum, Pseudomonas syringae, Rhodobacter sphaeroides, and Vibrio fluvialis encoding the ω-transaminases of SEQ ID NOs: 7, 9, 10 and 12, respectively (see FIG. 6) such that N-terminal HIS tagged ω-transaminases could be produced. Each of the resulting modified genes was cloned into a pET21a expression vector under control of the T7 promoter and each expression vector was transformed into a BL21[DE3] E. coli host. The resulting recombinant E. coli strains were cultivated at 37° C. in a 250 mL shake flask culture containing 50 mL LB media and antibiotic selection pressure, with shaking at 230 rpm. Each culture was induced overnight at 16° C. using 1 mM IPTG.
(§2) The pellet from each induced shake flask culture was harvested via centrifugation. Each pellet was resuspended and lysed via sonication. The cell debris was separated from the supernatant via centrifugation and the cell free extract was used immediately in enzyme activity assays.
Enzyme activity assays in the reverse direction (i.e., 7-aminoheptanoate to pimelate semialdehyde) were performed in a buffer composed of a final concentration of 50 mM HEPES buffer (pH=7.5), 10 mM 7-aminoheptanoate, 10 mM pyruvate and 100 μM pyridoxyl 5′ phosphate. Each enzyme activity assay reaction was initiated by adding cell free extract of the ω-transaminase gene product or the empty vector control to the assay buffer containing the 7-aminoheptanoate and incubated at 25° C. for 4 h, with shaking at 250 rpm. The formation of L-alanine from pyruvate was quantified via RP-HPLC.

[2] = ω-transaminase activity, forward direction: pimelate semialdehyde to 7-aminoheptanoate (pyruvate formation by RP-HPLC); details: for acceptance of pimelate semialdehyde as substrate (conversion of L-alanine to pyruvate): cell free extract, 10 mM pimelate semialdehyde, 10 mM L-alanine, pH 7.5, 25° C., 4 h, against the empty vector control (FIG. 14); for reversibility of ω-transaminase activity: pimelate semialdehyde accepted, 7-aminoheptanoate synthesized: conclusion from reverse and forward assays of Example 1
Protocol: as §1, §2
Enzyme activity in the forward direction (i.e., pimelate semialdehyde to 7-aminoheptanoate) was confirmed for the transaminases of SEQ ID NO 9, SEQ ID NO 10 and SEQ ID NO 12. Enzyme activity assays were performed in a buffer composed of a final concentration of 50 mM HEPES buffer (pH=7.5), 10 mM pimelate semialdehyde, 10 mM L-alanine and 100 μM pyridoxyl 5′ phosphate. Each enzyme activity assay reaction was initiated by adding a cell free extract of the ω-transaminase gene product or the empty vector control to the assay buffer containing the pimelate semialdehyde and incubated at 25° C. for 4 h, with shaking at 250 rpm. The formation of pyruvate was quantified via RP-HPLC.

[3] = ω-transaminase activity: 7-aminoheptanol to 7-oxoheptanol (L-alanine formation by RP-HPLC); details: for acceptance of 7-aminoheptanol as substrate (conversion of pyruvate to L-alanine): cell free extract, 10 mM 7-aminoheptanol, 10 mM pyruvate, pH 7.5, 25° C., 4 h, against the empty vector control (FIG. 17); for acceptance of 7-oxoheptanol as substrate forming 7-aminoheptanol: concluded from the reversibility of the ω-transaminase activity (Example 1)
Protocol: A nucleotide sequence encoding an N-terminal His-tag was added to the Chromobacterium violaceum, Pseudomonas syringae and Rhodobacter sphaeroides nucleic acids encoding the ω-transaminases of SEQ ID NOs: 7, 9 and 10, respectively (see FIG. 6) such that N-terminal HIS tagged ω-transaminases could be produced. The modified genes were cloned into a pET21a expression vector under the T7 promoter. Each expression vector was transformed into a BL21[DE3] E. coli host. Each resulting recombinant E. coli strain were cultivated at 37° C. in a 250 mL shake flask culture containing 50 mL LB media and antibiotic selection pressure, with shaking at 230 rpm. Each culture was induced overnight at 16° C. using 1 mM IPTG.
as §2
Enzyme activity assays in the reverse direction (i.e., 7-aminoheptanol to 7-oxoheptanol) were performed in a buffer composed of a final concentration of 50 mM HEPES buffer (pH=7.5), 10 mM 7-aminoheptanol, 10 mM pyruvate, and […] pyridoxyl 5′ phosphate. Each enzyme activity assay reaction was initiated by adding cell free extract of the ω-transaminase gene product or the empty vector control to the assay buffer containing the 7-aminoheptanol and then incubated at 25° C. for 4 h, with shaking at 250 rpm. The formation of L-alanine was quantified via RP-HPLC.

[4] = carboxylate reductase activity: N7-acetyl-7-aminoheptanoate to N7-acetyl-7-aminoheptanal (NADPH consumption, A340); details: purified enzyme enhanced by sfp gene product, 2 mM N7-acetyl-7-aminoheptanoate, pH 7.5, room temperature, 20 min; against the empty vector control (FIG. 10)
Protocol: The activity of each of the N-terminal His-tagged carboxylate reductases of SEQ ID NOs: 3, 5, and 6 (see Examples 2 and 3, and FIG. 6) for converting N7-acetyl-7-aminoheptanoate to N7-acetyl-7-aminoheptanal was assayed in triplicate in a buffer composed of a final concentration of 50 mM HEPES buffer (pH=7.5), 2 mM N7-acetyl-7-aminoheptanoate, 10 mM MgCl2, 1 mM ATP, and 1 mM NADPH. The assays were initiated by adding purified carboxylate reductase and phosphopantetheine transferase or the empty vector control to the assay buffer containing the N7-acetyl-7-aminoheptanoate then incubated at room temperature for 20 min. The consumption of NADPH was monitored by absorbance at 340 nm.

Molecule | acceptance of 7-aminoheptanoate as substrate (conversion of pyruvate to L-alanine) [1] | acceptance of pimelate semialdehyde as substrate (conversion of L-alanine to pyruvate) [2] | reversibility of ω-transaminase activity: pimelate semialdehyde accepted, 7-aminoheptanoate synthesized [2] | acceptance of 7-aminoheptanol as substrate (conversion of pyruvate to L-alanine) [3] | acceptance of 7-oxoheptanol as substrate forming 7-aminoheptanol [3] | acceptance of N7-acetyl-7-aminoheptanoate as substrate (NADPH consumption) [4]
SEQ ID NO: 10: Rhodobacter sphaeroides ω-transaminase, N-terminal HIS tagged | accepted 7-aminoheptanoate as substrate | accepted pimelate semialdehyde as substrate | accepted pimelate semialdehyde as substrate and synthesized 7-aminoheptanoate as a reaction product | accepted 7-aminoheptanol as substrate | accept 7-oxoheptanol as substrate and form 7-aminoheptanol | –
B1 | – | – | – | – | – | accepted N7-acetyl-7-aminoheptanoate as substrate
B2 | accepted 7-aminoheptanoate as substrate | accepted pimelate semialdehyde as substrate | accepted pimelate semialdehyde as substrate and synthesized 7-aminoheptanoate as a reaction product | accepted 7-aminoheptanol as substrate | accept 7-oxoheptanol as substrate and form 7-aminoheptanol | –
B3 | accepted 7-aminoheptanoate as substrate | accepted pimelate semialdehyde as substrate | accepted pimelate semialdehyde as substrate and synthesized 7-aminoheptanoate as a reaction product | – | – | –
